T1: 可溶性ヒトgp130受容体 (soluble human gp130 receptor, extracellular region of SEQ ID NO 1 with six histidines) (human, UniProt P40189 23-619)
T1 construct: Secreted from CHO DG44 cells and purified on HisTrap; no cleavage site is stated; also called 可溶性ヒトgp130受容体タンパク質; ヒト可溶性gp130受容体
T1 sequence: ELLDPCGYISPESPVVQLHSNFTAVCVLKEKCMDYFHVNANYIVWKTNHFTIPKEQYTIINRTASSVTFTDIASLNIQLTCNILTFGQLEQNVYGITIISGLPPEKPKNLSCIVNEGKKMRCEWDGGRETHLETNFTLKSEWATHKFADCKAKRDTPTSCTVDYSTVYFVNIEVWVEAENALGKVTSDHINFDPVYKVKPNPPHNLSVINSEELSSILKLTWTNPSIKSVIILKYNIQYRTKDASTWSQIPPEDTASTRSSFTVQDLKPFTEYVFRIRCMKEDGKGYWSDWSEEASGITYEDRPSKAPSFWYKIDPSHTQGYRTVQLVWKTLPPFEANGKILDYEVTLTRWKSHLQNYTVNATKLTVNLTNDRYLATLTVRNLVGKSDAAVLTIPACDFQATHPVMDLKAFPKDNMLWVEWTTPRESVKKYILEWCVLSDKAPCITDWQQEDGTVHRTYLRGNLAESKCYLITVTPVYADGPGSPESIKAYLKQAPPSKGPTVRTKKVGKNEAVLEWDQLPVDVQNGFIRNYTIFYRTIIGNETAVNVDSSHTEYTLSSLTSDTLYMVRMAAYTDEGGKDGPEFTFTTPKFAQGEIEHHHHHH


target: T1, 可溶性ヒトgp130受容体 (soluble human gp130 …); experiment: ELISA, immobilised soluble human gp130, COS1 supernatant, anti-human antibody-HRP

| Binder | binding result |
| --- | --- |
| ヒト化抗体A AH4−AL7 (antibody, V domains shown, VH on human IgG1 constant region (pFUSEss-CHIg-hG1), VL on human kappa constant region (pFUSE2ss-CLIg-hk); also called AH4-AL7) VH: QVQLVQSGAEVKKPGSSVKVSCKASGYTFTDYNMDWVRQAPGQGLEWMGDINSHSGGIIYNQKFKDRVTITADESTSTAYMELSSLRSEDTAVYYCARTYYVYGHFFDYWGQGTLVTVSS VL: DIQMTQSPSTLSASIGDRVTITCNVSSSVTSMYWFQQRPGQAPKVLIYLTSNLASGVPSRFSGSGSGTDFTFTISSLQPEDIATYYCQQWSTNPLTFGGGTKVDIK | binds |
| ヒト化抗体A AH3−AL2 (antibody, V domains shown, VH on human IgG1 constant region (pFUSEss-CHIg-hG1), VL on human kappa constant region (pFUSE2ss-CLIg-hk); also called AH3-AL2) VH: QVQLVQSGAEVKKPGASVKVSCKASGYTFTDYNMDWVRQAPGQGLEWIGDINSHSGGIIYNQKFKDKATMTVDTSTNTAYMELSSLRSEDTAVYYCARTYYVYGHFFDYWGQGTLVTVSS VL: DIQMTQSPSSLSASVGDRVTITCNVSSSVTSMYWYQQKQGKSPQLLVYLTSNLASGVPSRFSGSGSGTQFSLKINNLQPEDFGSYYCQQWSTNPLTFGAGTKLDLK | binds |
| ヒト化抗体A AH3−AL1 (antibody, V domains shown, VH on human IgG1 constant region (pFUSEss-CHIg-hG1), VL on human kappa constant region (pFUSE2ss-CLIg-hk); also called AH3-AL1) VH: QVQLVQSGAEVKKPGASVKVSCKASGYTFTDYNMDWVRQAPGQGLEWIGDINSHSGGIIYNQKFKDKATMTVDTSTNTAYMELSSLRSEDTAVYYCARTYYVYGHFFDYWGQGTLVTVSS VL: DIQMTQSPSSLSASVGDRVTITCNVSSSVTSMYWYQQKPGKAPKLLIYLTSNLASGVPARFSGSGSGTEFTLTISSLQPDDFATYYCQQWSTNPLTFGAGTKLDLK | binds |
| ヒト化抗体A AH2−AL7 (antibody, V domains shown, VH on human IgG1 constant region (pFUSEss-CHIg-hG1), VL on human kappa constant region (pFUSE2ss-CLIg-hk); also called AH2-AL7) VH: QVQLQQPGAELVQPGTSVRLSCKASGYTFTDYNMDWVKQRPGQGLEWIGDINSHSGGIIYNQKFKDKATLTVDKSSSTAYMQLSSLTSEDSAVYYCTRTYYVYGHFFDYWGQGTLVTVSA VL: DIQMTQSPSTLSASIGDRVTITCNVSSSVTSMYWFQQRPGQAPKVLIYLTSNLASGVPSRFSGSGSGTDFTFTISSLQPEDIATYYCQQWSTNPLTFGGGTKVDIK | binds |
| ヒト化抗体A AH8−AL7 (antibody, V domains shown, VH on human IgG1 constant region (pFUSEss-CHIg-hG1), VL on human kappa constant region (pFUSE2ss-CLIg-hk); also called AH8-AL7) VH: EVQLVQSGAEVKKPGASVKVSCKASGYTFTDYNMDWVRQAPGKGLEWVGDINSHSGGIIYNQKFKDRVTITADRSTSTVYMELSGLRSEDTAVYYCARTYYVYGHFFDYWGKGTLVTVSS VL: DIQMTQSPSTLSASIGDRVTITCNVSSSVTSMYWFQQRPGQAPKVLIYLTSNLASGVPSRFSGSGSGTDFTFTISSLQPEDIATYYCQQWSTNPLTFGGGTKVDIK | binds |
| ヒト化抗体A AH1−AL7 (antibody, V domains shown, VH on human IgG1 constant region (pFUSEss-CHIg-hG1), VL on human kappa constant region (pFUSE2ss-CLIg-hk); also called AH1-AL7) VH: EVQLVQSGAEVKKPGSSVKVSCKASGYTFTDYNMDWVRQAPGQGLEWIGDINSHSGGIIYNQKFKDKATITADESTNTAYMELSSLRSEDTAVYYCARTYYVYGHFFDYWGQGTTLTVSS VL: DIQMTQSPSTLSASIGDRVTITCNVSSSVTSMYWFQQRPGQAPKVLIYLTSNLASGVPSRFSGSGSGTDFTFTISSLQPEDIATYYCQQWSTNPLTFGGGTKVDIK | binds |
| ヒト化抗体A AH5−AL7 (antibody, V domains shown, VH on human IgG1 constant region (pFUSEss-CHIg-hG1), VL on human kappa constant region (pFUSE2ss-CLIg-hk); also called AH5-AL7) VH: EVQLVQSGPELKKPGASVKVSCKASGYTFTDYNMDWVKQRPGQGLEWIGDINSHSGGIIYNQKFKDRVTITADESTSTAYMELTSLTSEDTAVYYCARTYYVYGHFFDYWGQGTLVSVSS VL: DIQMTQSPSTLSASIGDRVTITCNVSSSVTSMYWFQQRPGQAPKVLIYLTSNLASGVPSRFSGSGSGTDFTFTISSLQPEDIATYYCQQWSTNPLTFGGGTKVDIK | binds |
| ヒト化抗体A AH3−AL5 (antibody, V domains shown, VH on human IgG1 constant region (pFUSEss-CHIg-hG1), VL on human kappa constant region (pFUSE2ss-CLIg-hk); also called AH3-AL5) VH: QVQLVQSGAEVKKPGASVKVSCKASGYTFTDYNMDWVRQAPGQGLEWIGDINSHSGGIIYNQKFKDKATMTVDTSTNTAYMELSSLRSEDTAVYYCARTYYVYGHFFDYWGQGTLVTVSS VL: DIQMTQSPASLSASVGETVTITCNVSSSVTSMYWYQQKPGKAPKLLIYLTSNLASGVPARFSGSGSGTEFTLTISSLQPDDFATYYCQQWSTNPLTFGAGTKLDLK | binds |
| ヒト化抗体A AH8−AL1 (antibody, V domains shown, VH on human IgG1 constant region (pFUSEss-CHIg-hG1), VL on human kappa constant region (pFUSE2ss-CLIg-hk); also called AH8-AL1) VH: EVQLVQSGAEVKKPGASVKVSCKASGYTFTDYNMDWVRQAPGKGLEWVGDINSHSGGIIYNQKFKDRVTITADRSTSTVYMELSGLRSEDTAVYYCARTYYVYGHFFDYWGKGTLVTVSS VL: DIQMTQSPSSLSASVGDRVTITCNVSSSVTSMYWYQQKPGKAPKLLIYLTSNLASGVPARFSGSGSGTEFTLTISSLQPDDFATYYCQQWSTNPLTFGAGTKLDLK | binds |

Continued, values first:

| binding result | Binder |
| --- | --- |
| binds | ヒト化抗体A AH3−AL7 (antibody, V domains shown, VH on human IgG1 constant region (pFUSEss-CHIg-hG1), VL on human kappa constant region (pFUSE2ss-CLIg-hk); also called AH3-AL7) VH: QVQLVQSGAEVKKPGASVKVSCKASGYTFTDYNMDWVRQAPGQGLEWIGDINSHSGGIIYNQKFKDKATMTVDTSTNTAYMELSSLRSEDTAVYYCARTYYVYGHFFDYWGQGTLVTVSS VL: DIQMTQSPSTLSASIGDRVTITCNVSSSVTSMYWFQQRPGQAPKVLIYLTSNLASGVPSRFSGSGSGTDFTFTISSLQPEDIATYYCQQWSTNPLTFGGGTKVDIK |
| binds | ヒト化抗体A AH3−AL4 (antibody, V domains shown, VH on human IgG1 constant region (pFUSEss-CHIg-hG1), VL on human kappa constant region (pFUSE2ss-CLIg-hk); also called AH3-AL4) VH: QVQLVQSGAEVKKPGASVKVSCKASGYTFTDYNMDWVRQAPGQGLEWIGDINSHSGGIIYNQKFKDKATMTVDTSTNTAYMELSSLRSEDTAVYYCARTYYVYGHFFDYWGQGTLVTVSS VL: DIQMTQSPSSLSASVGDRVTITCNVSSSVTSMYWYQQKQGKSPQLLVYLTSNLASGVPSRFSGSGSGTDFTLTISSLQPEDFATYYCQQWSTNPLTFGQGTKVEIK |
| binds | ヒト化抗体A AH6−AL7 (antibody, V domains shown, VH on human IgG1 constant region (pFUSEss-CHIg-hG1), VL on human kappa constant region (pFUSE2ss-CLIg-hk); also called AH6-AL7) VH: QVQLVQSGAEVKKPGASVKVSCKASGYTFTDYNMDWVRQAPGQGLEWIGDINSHSGGIIYNQKFKDRVTITADESTSTAYMELTSLTSEDTAVYYCARTYYVYGHFFDYWGQGTTVTVSS VL: DIQMTQSPSTLSASIGDRVTITCNVSSSVTSMYWFQQRPGQAPKVLIYLTSNLASGVPSRFSGSGSGTDFTFTISSLQPEDIATYYCQQWSTNPLTFGGGTKVDIK |
| binds | ヒト化抗体A AH3−AL3 (antibody, V domains shown, VH on human IgG1 constant region (pFUSEss-CHIg-hG1), VL on human kappa constant region (pFUSE2ss-CLIg-hk); also called AH3-AL3) VH: QVQLVQSGAEVKKPGASVKVSCKASGYTFTDYNMDWVRQAPGQGLEWIGDINSHSGGIIYNQKFKDKATMTVDTSTNTAYMELSSLRSEDTAVYYCARTYYVYGHFFDYWGQGTLVTVSS VL: DIQMTQSPSTLSASVGDRVTITCNVSSSVTSMYWYQQKPGKAPKLLIYLTSNLASGVPARFSGSGSGTEFTLTISSLQPDDFATYYCQQWSTNPLTFGQGTKVEVK |
| binds | ヒト化抗体A AH2−AL2 (antibody, V domains shown, VH on human IgG1 constant region (pFUSEss-CHIg-hG1), VL on human kappa constant region (pFUSE2ss-CLIg-hk); also called AH2-AL2) VH: QVQLQQPGAELVQPGTSVRLSCKASGYTFTDYNMDWVKQRPGQGLEWIGDINSHSGGIIYNQKFKDKATLTVDKSSSTAYMQLSSLTSEDSAVYYCTRTYYVYGHFFDYWGQGTLVTVSA VL: DIQMTQSPSSLSASVGDRVTITCNVSSSVTSMYWYQQKQGKSPQLLVYLTSNLASGVPSRFSGSGSGTQFSLKINNLQPEDFGSYYCQQWSTNPLTFGAGTKLDLK |
| binds | ヒト化抗体A AH2−AL6 (antibody, V domains shown, VH on human IgG1 constant region (pFUSEss-CHIg-hG1), VL on human kappa constant region (pFUSE2ss-CLIg-hk); also called AH2-AL6) VH: QVQLQQPGAELVQPGTSVRLSCKASGYTFTDYNMDWVKQRPGQGLEWIGDINSHSGGIIYNQKFKDKATLTVDKSSSTAYMQLSSLTSEDSAVYYCTRTYYVYGHFFDYWGQGTLVTVSA VL: EIVLTQSPATLSLSPGERATLSCNVSSSVTSMYWYQQKPGQAPRLLIYLTSNLASGIPDRFSGSGSGTDFTLTISRLEPEDFAVYYCQQWSTNPLTFGQGTKVEIK |
| binds | ヒト化抗体A AH2−AL8 (antibody, V domains shown, VH on human IgG1 constant region (pFUSEss-CHIg-hG1), VL on human kappa constant region (pFUSE2ss-CLIg-hk); also called AH2-AL8) VH: QVQLQQPGAELVQPGTSVRLSCKASGYTFTDYNMDWVKQRPGQGLEWIGDINSHSGGIIYNQKFKDKATLTVDKSSSTAYMQLSSLTSEDSAVYYCTRTYYVYGHFFDYWGQGTLVTVSA VL: ELVLTQSPGTLSLSAGERATLSCNVSSSVTSMYWYQQKPGKAPKLLIYLTSNLASGAPSRFSGSGSGTDFTLTISSLQPDDFATYYCQQWSTNPLTFGGGTKLEIK |
